“And” between values parts separate entries of the source, which are not always exact repeats. Equal entries are not always repeated. Where two headings read alike, the source gives them in different places.

By EC50 is commonly meant the concentration giving half of the maximal effect.

In assay [1] the target is T1, rhesus CD11a (rhesus, UniProt H9Z8N3 26-1169).
T1 construct: whole, on cells; also called rhCD11a
T1 sequence: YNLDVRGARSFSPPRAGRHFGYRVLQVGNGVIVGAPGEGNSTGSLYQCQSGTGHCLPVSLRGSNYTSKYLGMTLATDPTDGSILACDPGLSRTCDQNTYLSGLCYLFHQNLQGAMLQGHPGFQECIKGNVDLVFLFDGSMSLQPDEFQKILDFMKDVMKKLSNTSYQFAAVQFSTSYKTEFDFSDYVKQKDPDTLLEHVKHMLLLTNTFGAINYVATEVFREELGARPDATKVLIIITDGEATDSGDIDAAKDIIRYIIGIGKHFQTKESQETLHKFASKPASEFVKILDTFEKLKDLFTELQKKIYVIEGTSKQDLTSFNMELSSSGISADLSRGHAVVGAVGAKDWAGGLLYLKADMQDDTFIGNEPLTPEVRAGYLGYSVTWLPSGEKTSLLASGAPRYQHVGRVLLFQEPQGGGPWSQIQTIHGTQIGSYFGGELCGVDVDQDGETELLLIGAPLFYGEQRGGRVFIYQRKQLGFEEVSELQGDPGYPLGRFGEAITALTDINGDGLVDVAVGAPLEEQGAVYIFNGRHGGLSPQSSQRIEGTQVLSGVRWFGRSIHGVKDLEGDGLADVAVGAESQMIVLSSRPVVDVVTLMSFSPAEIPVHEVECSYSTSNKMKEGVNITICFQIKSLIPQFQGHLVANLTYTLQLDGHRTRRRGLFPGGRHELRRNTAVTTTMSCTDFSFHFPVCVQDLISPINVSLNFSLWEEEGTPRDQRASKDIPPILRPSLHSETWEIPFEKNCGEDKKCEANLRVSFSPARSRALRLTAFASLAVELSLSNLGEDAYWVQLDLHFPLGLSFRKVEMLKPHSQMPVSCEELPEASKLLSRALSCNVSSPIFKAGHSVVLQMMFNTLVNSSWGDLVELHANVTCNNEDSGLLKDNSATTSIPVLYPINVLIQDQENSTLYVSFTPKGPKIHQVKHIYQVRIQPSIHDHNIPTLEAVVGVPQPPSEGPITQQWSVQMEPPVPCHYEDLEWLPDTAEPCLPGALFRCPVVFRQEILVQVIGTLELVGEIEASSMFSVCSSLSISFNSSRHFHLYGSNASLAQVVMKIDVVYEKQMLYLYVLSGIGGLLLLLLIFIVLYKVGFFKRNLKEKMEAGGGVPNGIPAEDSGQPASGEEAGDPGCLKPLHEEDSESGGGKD
Description: cell binding EC50, rhesus against human CD11a.

Assay [2] concerns the target T2, human CD11a (human, UniProt P20701 26-1170). Description: cell-based or functional assay.
Assay [3] deals with T1, rhesus CD11a. The experiment in a line: binding to rhesus peripheral blood lymphocytes.
In assay [4] the target is T2, human CD11a. Description: saturation binding, human lymphocytes, donor 2, Kd(app).
The target of assay [5] is T1, rhesus CD11a. Description: binding to rhesus peripheral blood lymphocytes. The source holds these as a separate data set.
Assay [6] addresses T2, human CD11a. The experiment in a line: cell-based or functional assay. This is another data set of the same source.
The target of assay [7] is T2, human CD11a. Description: FACScan, Jurkat cells.
Target sequence in this assay (P20701 26-1170): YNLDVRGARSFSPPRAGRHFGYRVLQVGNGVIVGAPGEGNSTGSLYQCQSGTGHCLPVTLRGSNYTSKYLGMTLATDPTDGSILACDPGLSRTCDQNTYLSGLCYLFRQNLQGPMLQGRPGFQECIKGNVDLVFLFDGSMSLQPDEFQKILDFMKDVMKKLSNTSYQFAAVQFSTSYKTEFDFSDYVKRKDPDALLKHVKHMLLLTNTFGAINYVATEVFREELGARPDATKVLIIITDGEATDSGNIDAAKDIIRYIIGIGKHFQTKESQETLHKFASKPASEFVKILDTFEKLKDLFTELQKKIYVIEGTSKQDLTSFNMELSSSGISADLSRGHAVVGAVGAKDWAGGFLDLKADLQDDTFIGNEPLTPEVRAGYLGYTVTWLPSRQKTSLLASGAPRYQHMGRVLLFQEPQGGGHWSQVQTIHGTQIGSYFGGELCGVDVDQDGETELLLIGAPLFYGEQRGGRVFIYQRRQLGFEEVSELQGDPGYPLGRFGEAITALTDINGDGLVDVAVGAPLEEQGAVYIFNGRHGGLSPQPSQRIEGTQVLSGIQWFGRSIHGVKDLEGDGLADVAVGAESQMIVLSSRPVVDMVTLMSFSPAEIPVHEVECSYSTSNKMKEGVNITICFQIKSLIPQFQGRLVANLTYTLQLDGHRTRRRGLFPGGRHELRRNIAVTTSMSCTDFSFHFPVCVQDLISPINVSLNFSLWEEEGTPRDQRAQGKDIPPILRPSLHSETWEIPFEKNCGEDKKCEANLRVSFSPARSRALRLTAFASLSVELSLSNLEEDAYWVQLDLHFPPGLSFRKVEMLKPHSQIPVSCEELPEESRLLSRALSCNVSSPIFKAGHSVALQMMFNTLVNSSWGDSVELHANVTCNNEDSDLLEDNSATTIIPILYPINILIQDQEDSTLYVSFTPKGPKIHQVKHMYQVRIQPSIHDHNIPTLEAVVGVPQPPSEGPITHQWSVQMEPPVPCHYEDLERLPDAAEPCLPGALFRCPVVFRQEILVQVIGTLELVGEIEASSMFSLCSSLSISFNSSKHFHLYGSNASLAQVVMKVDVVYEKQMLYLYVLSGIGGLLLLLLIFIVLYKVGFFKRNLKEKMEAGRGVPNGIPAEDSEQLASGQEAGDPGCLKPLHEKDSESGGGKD
The target in assay [8] is T2, human CD11a. The experiment in a line: FACScan, Jurkat cells. This is another data set of the same source.
Assay [9] deals with T2, human CD11a. Description: saturation binding of 125I-antibody to human mononuclear cells, Kd(app).
The target of assay [10] is T2, human CD11a. Description: FACScan, Jurkat cells. This is another data set of the same source.
The target in assay [11] is T2, human CD11a. Description: saturation binding, human lymphocytes, donor 1, Kd(app).
Assay [12] concerns the target T1, rhesus CD11a. Description: cell-based or functional assay.
In assay [13] the target is T1, rhesus CD11a. Description: binding to rhesus peripheral blood lymphocytes. This is another data set of the same source.
Assay [14] deals with T3, rhesus-human chimeric CD11a (Rh/HuCD11a) (human (I-domain mutated to rhesus), UniProt P20701 26-1170).
T3 sequence (looked up): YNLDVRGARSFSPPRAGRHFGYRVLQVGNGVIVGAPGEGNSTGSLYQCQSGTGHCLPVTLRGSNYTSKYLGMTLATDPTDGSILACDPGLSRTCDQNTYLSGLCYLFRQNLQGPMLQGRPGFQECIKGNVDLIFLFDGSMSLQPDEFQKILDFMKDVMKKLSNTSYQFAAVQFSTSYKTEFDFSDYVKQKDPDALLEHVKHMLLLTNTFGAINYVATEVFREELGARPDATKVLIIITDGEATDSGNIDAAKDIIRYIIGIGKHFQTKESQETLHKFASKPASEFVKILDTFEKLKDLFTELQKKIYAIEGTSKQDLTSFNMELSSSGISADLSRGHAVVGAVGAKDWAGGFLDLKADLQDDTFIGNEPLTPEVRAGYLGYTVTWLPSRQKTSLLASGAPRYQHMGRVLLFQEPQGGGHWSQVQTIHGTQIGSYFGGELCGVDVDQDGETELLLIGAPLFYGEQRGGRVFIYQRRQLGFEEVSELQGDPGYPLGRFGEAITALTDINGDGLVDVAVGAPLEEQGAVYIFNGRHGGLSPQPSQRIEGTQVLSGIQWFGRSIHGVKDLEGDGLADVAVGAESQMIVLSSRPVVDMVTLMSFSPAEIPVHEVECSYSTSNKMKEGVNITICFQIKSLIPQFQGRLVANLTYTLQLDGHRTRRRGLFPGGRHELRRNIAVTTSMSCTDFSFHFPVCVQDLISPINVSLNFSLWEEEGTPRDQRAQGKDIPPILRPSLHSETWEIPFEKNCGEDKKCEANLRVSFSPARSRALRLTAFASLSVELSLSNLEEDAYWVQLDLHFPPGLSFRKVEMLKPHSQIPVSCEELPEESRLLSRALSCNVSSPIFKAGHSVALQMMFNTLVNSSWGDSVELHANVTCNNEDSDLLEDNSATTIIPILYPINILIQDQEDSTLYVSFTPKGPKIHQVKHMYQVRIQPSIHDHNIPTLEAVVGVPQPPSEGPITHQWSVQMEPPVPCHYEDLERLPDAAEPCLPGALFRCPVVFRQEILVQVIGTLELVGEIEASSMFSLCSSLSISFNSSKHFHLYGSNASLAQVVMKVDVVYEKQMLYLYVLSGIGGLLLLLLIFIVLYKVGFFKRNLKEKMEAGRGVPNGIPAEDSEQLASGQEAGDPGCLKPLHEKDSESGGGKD
The experiment in a line: cell-based or functional assay.

Assay [15] addresses T1, rhesus CD11a. Description: cell-based or functional assay. This is another data set of the same source.
For assay [16], the target named is T1, rhesus CD11a. The experiment in a line: saturation binding, rhesus leukocytes, donor 3, with 1 mg/ml human IgG1, Kd(app).
Assay [17] deals with T3, rhesus-human chimeric CD11a (Rh/HuCD11a). The experiment in a line: cell-based or functional assay. The source holds these as a separate data set.
For assay [18], the target named is T1, rhesus CD11a. The experiment in a line: cell-based or functional assay. The source holds these as a separate data set.
The target in assay [19] is T1, rhesus CD11a. The experiment in a line: cell binding EC50 on rhesus CD11a against HuIgG1 on human CD11a.
Assay [20] addresses T1, rhesus CD11a. Description: saturation binding, Kd(app).
The target of assay [21] is T1, rhesus CD11a. The experiment in a line: saturation binding, rhesus leukocytes, donor 1, Kd(app).

B1: humanized MHM24 IgG1 (HuIgG1) (antibody, V domains shown)
VH: EVQLVESGGGLVQPGGSLRLSCAASGYSFTGHWMNWVRQAPGKGLEWVGMIHPSDSETRYNQKFKDRFTISVDKSKNTLYLQMNSLRAEDTAVYYCARGIYFYGTTYFDYWGQGTLVTVSS
VL: DIQMTQSPSSLSASVGDRVTITCRASKTISKYLAWYQQKPGKAPKLLIYSGSTLQSGVPSRFSGSGSGTDFTLTISSLQPEDFATYYCQQHNEYPLTFGQGTKVEIKR
notes: F(ab)-8 VL and VH fused to human constant light and IgG1 heavy chains; also called HulgG1; huMHM24
Take B1: the “fold reduction in binding against human CD11a” value in assay [1] was approximately 1000 fold. Besides, the “IC50, human mixed lymphocyte response assay” value in assay [2] amounted to 0.38 nM. Also, the “Var.EC50/HuIgG1 EC50” value in assay [3] and in [8] was 1 ratio throughout. In addition, the Kd in [4] came to 0.18 nM; in assay [9] it was 0.15 nM; in [11] it was 0.11 nM. The EC50 in [5] came to 45.6 nM; in assay [10] it was 0.042 nM. In addition, the “IC50, blocking of cell adhesion, Jurkat:HuK” value in assay [6] is 0.13 nM. In addition, in assay [7], the “EC50 F(ab)/EC50 F(ab)-2” value was found to be 0.004 ratio.

B2: rhesus-binding MHM24 (RhIgG1), variant H2C12 (antibody, V domains shown)
VH: EVQLVESGGGLVQPGGSLRLSCAASGYSFTGHWMNWVRQAPGKGLEWVGMIAPASSSTRYNQKFKDRFTISVDKSKNTLYLQMNSLRAEDTAVYYCARGIYFYGTTYFDYWGQGTLVTVSS
VL: DIQMTQSPSSLSASVGDRVTITCRASKTISKYLAWYQQKPGKAPKLLIYSGSTLQSGVPSRFSGSGSGTDFTLTISSLQPEDFATYYCQQHNEYPLTFGQGTKVEIKR
notes: Human IgG1; also called H2C l2; H2Cl2
As for B2, the “IC50, rhesus mixed lymphocyte response assay” value in [12] came out at 23.4 nM. Moreover, the “Var.EC50/HuIgG1 EC50” value in assay [3] was determined as 0.004 ratio. In [13], a half-maximal response (EC50) required 0.19 nM and the “fold improvement over the EC50 of HuIgG1 for rhesus CD11a” value was in the range of 240 to 415 fold. Also, the “IC50, blocking of cell adhesion, Rh/HuCD11a:HuK” value in assay [14] was found to be 4.9 nM. In [15], the “IC50, blocking of cell adhesion, RhLy:HuICAM” value was found to be 5.3 nM and the “IC50, blocking of cell adhesion, RhLy:HuK” value came out at 119 nM. The Kd in assay [16] was 2.8 nM and 2.7 nM. Further, the “fold down from MHM23, Rh/HuCD11a-293 cells to human keratinocytes” value in assay [17] amounted to 4 fold. Further, in assay [18], the “fold less efficacious than MHM23, rhesus lymphocytes to human keratinocytes” value worked out at 74 fold and the “fold less efficacious than MHM23, rhesus lymphocytes to recombinant human ICAM-1” value was 4 fold. In assay [19], the “fold weaker than the EC50 of HuIgG1 for human CD11a” value fell in the range of 3 to 5 fold. Besides, in [20], the “fold down in Kd from HuIgG1 for human CD11a” value is approximately 26 fold. Moreover, the Kd in assay [21] came to 3.9 nM.

Source of the values: EP1516629B1 (Genentech, Inc., dated 2013).
